Experiments:
[1] = molecular target: T1, T7-SOCS6 (UniProt Q9JLY0 1-533); assay: pull-down
T1 sequence (looked up): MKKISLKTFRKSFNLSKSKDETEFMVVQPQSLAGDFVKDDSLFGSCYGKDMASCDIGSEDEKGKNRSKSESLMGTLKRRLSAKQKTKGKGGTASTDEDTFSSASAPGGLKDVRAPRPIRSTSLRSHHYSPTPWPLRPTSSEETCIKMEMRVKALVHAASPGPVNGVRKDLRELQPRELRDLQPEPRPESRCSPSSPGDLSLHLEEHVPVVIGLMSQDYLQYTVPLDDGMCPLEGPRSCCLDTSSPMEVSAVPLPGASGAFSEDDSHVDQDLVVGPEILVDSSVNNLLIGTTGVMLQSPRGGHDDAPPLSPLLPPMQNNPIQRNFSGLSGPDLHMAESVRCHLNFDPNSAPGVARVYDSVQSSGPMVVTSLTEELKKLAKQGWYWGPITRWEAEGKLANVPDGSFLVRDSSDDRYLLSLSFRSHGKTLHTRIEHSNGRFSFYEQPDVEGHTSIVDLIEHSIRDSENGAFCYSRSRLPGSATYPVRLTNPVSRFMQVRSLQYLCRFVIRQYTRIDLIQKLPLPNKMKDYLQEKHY

[2] = molecular target: T2, T7-SOCS7 WT (UniProt Q8VHQ2 1-579); assay: pull-down
T2 sequence (looked up): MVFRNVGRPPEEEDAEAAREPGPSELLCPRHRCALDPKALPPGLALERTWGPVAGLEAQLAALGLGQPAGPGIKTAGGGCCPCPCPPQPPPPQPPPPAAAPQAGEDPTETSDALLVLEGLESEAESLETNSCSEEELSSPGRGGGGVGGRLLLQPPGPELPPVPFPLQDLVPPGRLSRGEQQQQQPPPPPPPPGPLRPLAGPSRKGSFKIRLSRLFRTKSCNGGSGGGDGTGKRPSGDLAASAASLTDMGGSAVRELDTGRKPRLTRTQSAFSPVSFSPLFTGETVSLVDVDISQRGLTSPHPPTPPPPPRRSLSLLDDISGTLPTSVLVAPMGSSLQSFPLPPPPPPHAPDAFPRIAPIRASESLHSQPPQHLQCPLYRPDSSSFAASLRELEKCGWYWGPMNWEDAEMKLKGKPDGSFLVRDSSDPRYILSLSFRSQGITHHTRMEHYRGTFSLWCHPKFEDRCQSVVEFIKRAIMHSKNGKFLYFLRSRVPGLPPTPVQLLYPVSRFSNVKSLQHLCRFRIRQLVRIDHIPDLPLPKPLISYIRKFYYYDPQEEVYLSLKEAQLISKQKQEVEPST

- fold pY.Dab1 bound against SOCS4, 5 or CISH [1]: ~10 fold
- fold pY.Dab1 bound against SOCS4, 5 or CISH [2]: ~10 fold
B1: tyrosine-phosphorylated Dab1-EGFP (natural protein, UniProt P97318 1-588, looked up)
chain: MSTETELQVAVKTSAKKDSRKKGQDRSEATLIKRFKGEGVRYKAKLIGIDEVSAARGDKLCQDSMMKLKGVVAGARSKGEHKQKIFLTISFGGIKIFDEKTGALQHHHAVHEISYIAKDITDHRAFGYVCGKEGNHRFVAIKTAQAAEPVILDLRDLFQLIYELKQREELEKKAQKDKQCEQAVYQTILEEDVEDPVYQYIVFEAGHEPIRDPETEENIYQVPTSQKKEGVYDVPKSQPNSQPLEDFESRFAAATPNRNLSMDFDELLEATKVSAVTQLELFGDMSTPPDITSPPTPATPGDAFLPSSSQTLPGSADVFGSMSFGTAAVPSGYVAMGAVLPSFWGQQPLVQQQIAMGAQPPVAQVIPGAQPIAWGQPGLFPATQQAWPTVAGQFPPAAFMPTQTVMPLAAAMFQGPLTPLATVPGTNDSARSSPQSDKPRQKMGKESFKDFQMVQPPPVPSRKPDQPSLTCTSEAFSSYFNKVGVAQDTDDCDDFDISQLNLTPVTSTTPSTNSPPTPAPRQSSPSKSSASHVSDPTADDIFEEGFESPSKSEEQEAPDGSQASSTSDPFGEPSGEPSGDNISPQDGS
modifications: phosphotyrosine (sites not given; phosphorylated by co-transfected Fyn)
